Assay results: the supplement of paper PMC9170038

System: MS2 coat protein
Test: apparent KD of MS2 coat protein, switch ON state; designed switch direction (-1 OFF switch, 1 ON switch): -1; higher = weaker reporter binding
Conditions: FMN input: 0 or 200 uM; Eterna round: R93 (includes R88 designs)
In short: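 Apparent KD was obtained for each design as the median of normalised binding-curve fits over its clusters. RNA switches transcribed on-chip from Illumina sequencing clusters were titrated with SNAP-549-labelled MS2 coat protein (twofold steps, 0.7 or 1.5 nM to 3 µM) in 100 mM Tris-HCl pH 7.5, 80 mM KCl, 4 mM MgCl2, without or with constant ligand.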

“AAAAAACAUGAGGAUCACCCAUGUGAGGAUAUGUACGAAAUAAAAUAAAAAUAAAAGUACAGAAGGCACAAAAA [Mat - Exclusion 1 - Eli mod - D4]” and “AGCAAGUUAGGAUAUGCGAAGUCAGGACACACACUGACAAAGCAGAAGGAACAUGAGGAUCACCCAUGUAAGCA [Mat - Exaclusion 4 - Eli mod - D64]” are within 1.5-fold of each other in “apparent KD of MS2 coat protein” value: 40.2 nM for the first, 29.9 nM for the second.

“GGUUGAGAAGGAUAUACAUGAGGAUCACCCAUGUGAGAGAAAAAAGUGAGAAAGAAAAGUAGAAGGUCUUGACG [salish99-ex3-63]” and “AAAAAACAUGAGGAUCACCCAUGUGAGGAUAUGAUGCGAAUAAAGAAAGAAGAAAGCAUCAGAAGGCACAUAUG [Mod of Disincluded 3 (little more stable fmn state)]” are within 1.5-fold of each other in “apparent KD of MS2 coat protein” value: 29 nM for the first, 39.5 nM for the second.

First: AACAUGUCAGGAUAUUUAAGAAAAGAAAAGAAAGAAAAGAAAAAGAAGGGACAUGAGGAUCACCCAUGUAAGAA [EteRNA is fun!]
Second: AAAAAGGCAGGAUAUACAUGAGGAUCACCCAUGUGAAAAAAAAAAAAAAAAAAAAAGUGUAGAAGGGUCAAAAA [Exclusion 3 - Omei 2]
The “apparent KD of MS2 coat protein” value of the first is 2.3-fold higher: 117 nM for the first, 51.7 nM for the second.

“AGCACGUCAGGAUAUACGAACACAAAGGGUAACAACAAGGGACAUGAGGAUCACCCAUGUAGAAGGGACUAGCA [Diamond 96]” and “AUAAAGACAGGAUAUACAUGAGGAUCACCCAUGUAAAAAAAAAAAUGAUCCUCAAAAAGUAGAAGGGUCAAUAA [JR_Exc003_Sub015]” are within 1.5-fold of each other in “apparent KD of MS2 coat protein” value: 58.2 nM for the first, 78.7 nM for the second.

“CAAAGGUGAGGAUAUACAAGGAUAUGACGAAAGUCAUAAAAACAUGAGGAUCACCCAUGUAGAAGGCACCACAA [E2 64% 4]” and “AACAGUACAGGAUAUACAUGAGGAUCACCCAUGUGAAAAUUAAGUGGCGUACCACAAAGUAGAAGGGUACUGGA [Moding Maslow revisited (73) 3]” are within 1.5-fold of each other in “apparent KD of MS2 coat protein” value: 33.9 nM for the first, 29.4 nM for the second.

Going from “AAAAAUGGAGGAUAUACAUGAGGAUCACCCAUGUGUAACUAUACUAAGCACACCUCACGUAGAAGGCCAAAAAA [Gilly Gone Silly 12 - Jieux - Exclusion 3]” to “AACUGACAUGAGGAUCACCCAUGUCAGGAUAUGACUUCGAAAAAUAAAAUAAACGAUGUCAGAAGGGACAUGGA [Design 67: Sub-opt NB]”, the “apparent KD of MS2 coat protein” value falls from 105 nM to 21.5 nM (4.9-fold).

Going from “AAAAAGUGAGGAUAUACGCUGAAGAGUAGACACAACCAGGCGUAGAAGGCACAUGAGGAUCACCCAUGUCCAAA [Ex4 Malc#10]” to “AACUGUACAGGAUAUACAUGAGGAUCACCCAUGUGAGAAUUAAGUGGCGAACCACAAAGUAGAAGGGUACAGGA [Mat - Exclusion 3 - JL mod - D16]”, the “apparent KD of MS2 coat protein” value rises from 21.2 nM to 50.3 nM (2.4-fold).

Going from “AAGAACAGAGGAUAUACAUGAGGAUCACCCAUGUAAAAGAAAGAAAGGGAAAAGAAAAGUAGAAGGCUGAAGAA [Neferkare Heqawaset Amenemnisu]” to “ACAGUUACAGGAUAUACAUAGGAAAAAAAAAAAAAAAUUCAACAUGAGGAUCACCCAUGUAGAAGGGUAACUGA [Ex2 Design 173: Random 2B]”, the “apparent KD of MS2 coat protein” value rises from 32.3 nM to 93.3 nM (2.9-fold).

Going from “AGCUAGUGAGGAUAUACGAACAUGUCAAAAGACUGUAAGGGACAUGAGGAUCACCCAUGUAGAAGGCACUAGCA [Diamond 55]” to “AGCUAGUCAGGAUAUACGAACAUGUAAAAAGACGUGAAGGGACAUGAGGAUCACCCAUGUAGAAGGGACUAGCA [74%, Web mod - With 1 less C's]”, the “apparent KD of MS2 coat protein” value falls from 55.7 nM to 33.9 nM (1.6-fold).

“GGGUAACAUGAGGAUCACCCAUGUGAGGAUAUGCUAGGGAUGGAAGCCAGGCCAAAAAGCAGAAGGUACUAAAG [Janelle Amethyst 18 Mod 16 - Jieux - Exclusion 1]” and “GGCUGGCGAGGAUAUACAUGAGGAUCACCCAUGUGAGAGAAAAAAGUGAGAAAGAAAAGUAGAAGGCGCUGGCG [salish99-ex3-55]” are within 1.5-fold of each other in “apparent KD of MS2 coat protein” value: 23.6 nM for the first, 34.1 nM for the second.

“AACACACAUGAGGAUCACCCAUGUAAGGAUAUGCAAGCAAGAAGAAAGAACAGAAAAAGCAGAAGGUACACACA [Amethyst 74]” and “CCUAUGUCAGGAUAUCAGUAGUAAAAAAAAAAAAUUACUACUGAGAAGGGACAUGAGGAUCACCCAUGUACCUU [EX4 310: Super Stable 10]” are within 1.5-fold of each other in “apparent KD of MS2 coat protein” value: 28.4 nM for the first, 25.5 nM for the second.

Compared with “GAAAAGUCAGGAUAUGUGGAAAAAAUAAAAAAAAUAAAAACACAGAAGGGACAUGAGGAUCACCCAUGUAAAAA [Mat - Exclusion 4 - Mayanna - D140]”, “GAAAAGUCAGGAUAUAUAGGAAAAAUAAAAAAAAUAAAACUAUAGAAGGGACAUGAGGAUCACCCAUGUUAAAG [Mat - Exclusion 4 - Mayanna - D132]” is 1.5-fold lower in “apparent KD of MS2 coat protein” value: 68.3 nM for the first, 44.5 nM for the second.

Compared with “AAGAAGUGAGGAUAUACAUGAACGAAAAAAAAAAAGAGCAUGUAGAAGGCACAUGAGGAUCACCCAUGUCAAAA [Georg Simmel]”, “ACGAACCUAGGAUAUACAUGAGGAUCACCCAUGUACAACUAUCCAUGAAUGACACUCGGUAGAAGGAGGAUCAA [Rileenen]” is 2-fold lower in “apparent KD of MS2 coat protein” value: 29.3 nM for the first, 15 nM for the second.

Going from “AAAAAGUCAGGAUAUGUGAAAAAAAAAAAAAAAAAAAAAAAACAGAAGGGACAUGAGGAUCACCCAUGUAAAAA [water's exclusion 4 2nd]” to “AAGGAGUAAGGAUAUCGGAAAGGACACGAAAGUGACAAAGACGAGAAGGUACAUGAGGAUCACCCAUGUAAAAA [milkweed 23]”, the “apparent KD of MS2 coat protein” value falls from 60 nM to 24.9 nM (2.4-fold).

“AAGAACAGAGGAUAUACAUGAGGAUCACCCAUGUAAAAGAAAGAAGGGAAAGAGAAAAGUAGAAGGCUGAAGAA [Titaru]” and “AAGAACGCAGGAUAUACAUGAGGAUCACCCAUGUAAAAGAAAGAAGGGAAAGAGAAAAGUAGAAGGGCGAAGAA [Usermaatre-setepenamun Iuput I]” are within 1.5-fold of each other in “apparent KD of MS2 coat protein” value: 25 nM for the first, 35.3 nM for the second.

First: AGCAAACAUGAGGAUCACCCAUGUCAGGAUAUGAACGAAAUAAAUAAAAAAUAAAAGUUCAGAAGGGACGAGCA [Mat - Exclusion 1 - Eli mod - D25]
Second: AAAUAGACAGGAUAUGCAUGAAAAUUAAAAAAAAAAAAAAAACAUGAGGAUCACCCAUGUAGAAGGGUCAAAAA [Exclusion 2 - Omei 1]
The “apparent KD of MS2 coat protein” value of the first is 2.1-fold lower: 32.4 nM for the first, 66.6 nM for the second.

“AAAAAGUGAGGAUAUAUAUGAAACAAAAAGAAAAAAAAAAAACAUGAGGAUCACCCAUGUAGAAGGCGCAAAAA ['Exclusion 2' Lab]” and “AGGGAGUAAGGAUAUCGGAAAGGACACGAAAGUGACAAAGACGAGAAGGUACAUGAGGAUCACCCAUGUAAAAA [milkweed 24]” are within 1.5-fold of each other in “apparent KD of MS2 coat protein” value: 27.1 nM for the first, 32.2 nM for the second.

Going from “AAGAAGUCAGGAUAUGUCUGUGCGAAAAAAAAAAAGUGCAGACAGAAGGGACAUGAGGAUCACCCAUGUGGAAA [Florian 65% 7]” to “AGCUAGCUAGGAUAUACGAACAUGUCAAAAGACGUGAAGGGACAUGAGGAUCACCCAUGUAGAAGGAGCUAGCA [JL 74% mod 6]”, the “apparent KD of MS2 coat protein” value falls from 46.8 nM to 28.7 nM (1.6-fold).

Compared with “AACAAGACAGGAUAUACAUGAGGAUCACCCAUGUCACAAUAAAGCAGCGCAACACAAAGUAGAAGGGUCAUGGA [Ruby 10]”, “AGUCUGAGAGGAUAUACAUAGGAAAAAAAAGUAAGAUCCCUACAUGAGGAUCACCCAUGUAGAAGGCUCUGACA [Ex2 Design 142: Sub-opt 6]” is 1.6-fold lower in “apparent KD of MS2 coat protein” value: 73.8 nM for the first, 46.9 nM for the second.

Compared with “GAAAAACAUGAGGAUCACCCAUGUCAGGAUAUGCAGAAAAAGAAAAAAAGAAAAGAAAGUAGAAGGGACAAAAG [Mat - Same state - Mayanna Mod - D106]”, “CAGUACUGAGGAUAUACAUGAGGAUCACCCAUGUGUUAAAGCUAGGAAACUAGCAAAUGUAGAAGGCAGUACUG [Ex3: 817]” is 2.1-fold lower in “apparent KD of MS2 coat protein” value: 29.4 nM for the first, 14 nM for the second.

“AACAGACAUGAGGAUCACCCAUGUAAGGAUAUCCAAAACGAUAAAACAAGAAUGACAGGGAGAAGGUACAGCAA [JR_Exc001_Sub007]” and “AACUAGUGAGGAUAUACAAGAAAACAAACAAAAAUGAAGGGACAUGAGGAUCACCCAUGUAGAAGGCACUAACA [Diamond 70]” are within 1.5-fold of each other in “apparent KD of MS2 coat protein” value: 53.6 nM for the first, 48.2 nM for the second.

Going from “AAGAAGGUAGGAUAUACAUGAGGAUCACCCAUGUAAAAGAAAGAAAAGGGAAAGAAAAGUAGAAGGACCAAGAA [Kheperkheperure Ay]” to “AAAACGGCAGGAUAUACAGAAGAGAUCACGAAAAAAAAAAAACAUGAGGAUCACCCAUGUAGAAGGGCCAAAAA [Ex2 Malc#4]”, the “apparent KD of MS2 coat protein” value rises from 32.9 nM to 117 nM (3.6-fold).
